Type in all cases: cell-based
Test [1] has as its system HDR-proficient DLD1 cells. The test is described as follows: Selectivity of combination therapy in HDR-proficient cells. Particulars: 5 nM olaparib, 10 μM di-scFv, alone or combined. As for the experimental part: Homology-directed repair (HDR) deficient BRCA2-DLD1 cells and PTEN-U251 cells were treated with control, 5 nM olaparib, 10 μM di-scFv, or 10 μM di-scFv+5 nM olaparib. Surviving fraction was determined by colony formation assay.
It was then determined whether the combination of di-scFv and olaparib is simply universally cytotoxic, regardless of DNA repair status. To evaluate this possibility, HDR-proficient DLD1 cells were treated with the above regimen to confirm selectivity of combination therapy to HDR-deficient malignant cells.

The subject of test [2] is BRCA2-deficient DLD1 colon cancer cells. Put plainly: Cell viability by Trypan blue exclusion assay, BRCA2-deficient cells. Particulars: BRCA2-deficient DLD1, 7 days, FIG. 10. The procedure:
(§1) Next, a matched pair of BRCA2-proficient and deficient DLD1 colon cancer cells was treated with control media or media containing Variants 10, 13, 15, or 16. Cell viability was determined 7 days later by Trypan blue exclusion assay and by direct visualization of cell morphology by light microscopy. […] Representative light microscope images shown the changes in morphology in the BRCA2-deficient cancer cells treated with the variants are shown in FIG. 10, Panel A. Quantitative analysis of the cell survival by Trypan blue exclusion assay is shown in FIG. 10, Panel B.

Test [3] has as its system BRCA2-proficient DLD1 colon cancer cells. The test is described as follows: Cell viability by Trypan blue exclusion assay, BRCA2-proficient cells. The following applies: BRCA2-proficient DLD1, 7 days, FIG. 10. The procedure: as §1
For test [4], the system named is PTEN-deficient U87 human glioma cells. The test is described as follows: Cell viability by Trypan blue exclusion assay and light microscopy. The following applies: PTEN-deficient U87, 7 days after treatment, FIG. 9. As for the experimental part: Cell viability of PTEN-deficient U87 human glioma cells was also assessed following treatment with control media or media containing Variants 10, 13, 15, or 16. Cell viability was determined 7 days after treatment using Trypan blue exclusion assay and by direct visualization of cell morphology by light microscopy.

Test [5] has as its system PTEN-deficient U251 human glioma cells. The test is described as follows: Phospho-53BP1 foci accumulation (DNA damage), PTEN-deficient cells. The following applies: PTEN-deficient U251, twenty-four hours, FIG. 8. The procedure:
A matched pair of PTEN-proficient and deficient U251 human glioma cells were treated with control media or media containing Variant 10, 11, 13, 15, or 16 for twenty-four hours. Cells were then washed, fixed, blocked, and then probed with an anti-phospho-53BP1 antibody overnight. Cells were then washed and incubated with an AlexaFluor555-conjugated secondary antibody. Finally, cells were washed, counterstained with DAPI, and visualized under a fluorescence microscope. Images were saved and evaluated by CellProfiler to determine mean number of phospho-53BP1 foci per cell.
A matched pair of BRCA2-proficient and deficient DLD1 colon cancer cells and PTEN-proficient and deficient U251 human glioma cells were treated with control media or media containing 10 μM di-scFv variant 13 (SEQ ID NO: 41), 5 nM olaparib, or combination treatment.

The subject of a further test is DLD1 colon cancer cells. The test is described as follows: Alkaline phosphatase-based survey of nuclear penetration. Particulars: DLD1 cells treated one hour; FIG. 5.

Five molecules from patent publication US20240052063A1, “Binding Proteins 2” (Nucleus Therapeutics Pty. Ltd., priority 2017, published 2024) can be followed below.

With `O=C(c1cc(Cc2n[nH]c(=O)c3ccccc23)ccc1F)N1CCN(C(=O)C2CC2)CC1` [olaparib, reference compound], the cell death result in test [1] is listed as “remain resistant”.

B1: Variant 15: cell penetrating anti-DNA di-scFv variant, amino acid sequence SEQ ID NO: 43 (protein)
scFv: DIQMTQSPSSLSASLGDRATITCRASKTVSTSSYSYMHWYQQKPGQPPKLLIKYASYLESGVPSRFSGSGSGTDFTLTISSLQPEDAATYYCQHSREFPWTFGGGTKVEIKRADAAPGGGGSGGGGSGGGGSEVQLVESGGGDVKPGGSLRLSCAASGFTFSNYGMHWVRQAPEKGLEWVSYISSGSSTIYYADSVKGRFTISRDNSKNTLYLQMNSLRAEDTAVYYCARRGLLLDYWGQGTTVTVSSASTKGPSVFPLAPLESSGSDIQMTQSPSSLSASLGDRATITCRASKTVSTSSYSYMHWYQQKPGQPPKLLIKYASYLESGVPSRFSGSGSGTDFTLTISSLQPEDAATYYCQHSREFPWTFGGGTKVEIKRADAAPGGGGSGGGGSGGGGSEVQLVESGGGDVKPGGSLRLSCAASGFTFSNYGMHWVRQAPEKGLEWVSYISSGSSTIYYADSVKGRFTISRDNSKNTLYLQMNSLRAEDTAVYYCARRGLLLDYWGQGTTVTVSS
modifications: Variant 15
In the case of B1, the “cell viability (cell killing)” value in test [2] is “killed by the variants”. For the same molecule, the “cell viability (toxicity)” value in test [3] was “not toxic”. The “cell viability relative to control treated cells” value in test [4] is reported as “caused reductions in cell viability”. For the same molecule, the “mean number of phospho-53BP1 foci per cell” value (shortened to “mean number … per cell”) in test [5] is recorded as “increased the number of foci”. Besides, the “nuclear penetration (histogram of cell counts versus nuclear staining intensity) relative to the yeast prototype” value in the test on DLD1 colon cancer cells was “notable right shift and narrowing of distributions relative to the yeast prototype”.

B2: Variant 10: cell penetrating anti-DNA di-scFv variant, amino acid sequence SEQ ID NO: 38 (protein)
scFv: DIQMTQSPSSLSASVGDRVTITCRASKSVSTSSYSYMHWYQQKPGKAPKLLIKYASYLESGVPSRFSGSGSGTDFTLTISSLQPEDFATYYCQHSREFPWTFGQGTKVEIKRADAAPGGGGSGGGGSGGGGSEVQLVESGGGLVQPGGSLRLSCAASGFTFSNYGMHWVRQAPGKGLEWVSYISSSSSTIYYADSVKGRFTISRDNAKNSLYLQMNSLRAEDTAVYYCARRGLLLDYWGQGTTVTVSSASTKGPSVFPLAPLESSGSDIQMTQSPSSLSASVGDRVTITCRASKSVSTSSYSYMHWYQQKPGKAPKLLIKYASYLESGVPSRFSGSGSGTDFTLTISSLQPEDFATYYCQHSREFPWTFGQGTKVEIKRADAAPGGGGSGGGGSGGGGSEVQLVESGGGLVQPGGSLRLSCAASGFTFSNYGMHWVRQAPGKGLEWVSYISSSSSTIYYADSVKGRFTISRDNAKNSLYLQMNSLRAEDTAVYYCARRGLLLDYWGQGTTVTVSS
modifications: Variant 10
In the case of B2, in test [2], the “cell viability (cell killing)” value is reported as “killed by the variants”. Besides, the “cell viability (toxicity)” value in test [3] is listed as “not toxic”. Moreover, the “cell viability relative to control treated cells” value in test [4] was “caused reductions in cell viability”. Moreover, in test [5], the “mean number … per cell” value was “increased the number of foci”.

B3: Variant 16: cell penetrating anti-DNA di-scFv variant, amino acid sequence SEQ ID NO: 44 (protein)
scFv: DIQMTQSPSSLSASVGDRVTITCRASKTVSTSSYSYMHWYQQKPGKAPKLLIKYASYLESGVPSRFSGSGSGTDFTLTISSLQPEDFATYYCQHSREFPWTFGQGTKVEIKRADAAPGGGGSGGGGSGGGGSEVQLVESGGGLVQPGGSLRLSCAASGFTFSNYGMHWVRQAPGKGLEWVSYISSGSSTIYYADSVKGRFTISRDNAKNSLYLQMNSLRAEDTAVYYCARRGLLLDYWGQGTTVTVSSASTKGPSVFPLAPLESSGSDIQMTQSPSSLSASVGDRVTITCRASKTVSTSSYSYMHWYQQKPGKAPKLLIKYASYLESGVPSRFSGSGSGTDFTLTISSLQPEDFATYYCQHSREFPWTFGQGTKVEIKRADAAPGGGGSGGGGSGGGGSEVQLVESGGGLVQPGGSLRLSCAASGFTFSNYGMHWVRQAPGKGLEWVSYISSGSSTIYYADSVKGRFTISRDNAKNSLYLQMNSLRAEDTAVYYCARRGLLLDYWGQGTTVTVSS
modifications: Variant 16
B3: the “cell viability (cell killing)” value in test [2] is given as “killed by the variants”. Moreover, the “cell viability (toxicity)” value in test [3] is “not toxic”. Moreover, the “cell viability relative to control treated cells” value in test [4] is “caused reductions in cell viability”. Also, the “mean number … per cell” value in test [5] is reported as “increased the number of foci”.

B4: Variant 11: cell penetrating anti-DNA di-scFv variant, amino acid sequence SEQ ID NO: 39 (protein)
scFv: DIQMTQSPSSLSASVGDRVTITCRASKSVSTSSYSYMHWYQQKPGKAPKLLIKYASYLESGVPSRFSGSGSGTDFTLTISSLQPEDFATYYCQHSREFPWTFGQGTKVEIKRADAAPGGGGSGGGGSGGGGSEVQLVESGGGVVQPGGSLRLSCAASGFTFSNYGMHWVRQAPEKGLEWVSYISSSSSTIYYADSVKGRFTISRDNSKNTLYLQMNSLRAEDTAVYYCARRGLLLDYWGQGTTVTVSSASTKGPSVFPLAPLESSGSDIQMTQSPSSLSASVGDRVTITCRASKSVSTSSYSYMHWYQQKPGKAPKLLIKYASYLESGVPSRFSGSGSGTDFTLTISSLQPEDFATYYCQHSREFPWTFGQGTKVEIKRADAAPGGGGSGGGGSGGGGSEVQLVESGGGVVQPGGSLRLSCAASGFTFSNYGMHWVRQAPEKGLEWVSYISSSSSTIYYADSVKGRFTISRDNSKNTLYLQMNSLRAEDTAVYYCARRGLLLDYWGQGTTVTVSS
modifications: Variant 11
Regarding B4, in test [5], the “mean number … per cell” value was “increased the number of foci”.
